# Data from patent US20020159989A1 (BETH ISRAEL DEACONESS MEDICAL CENTER, published 2002).
# B1: peptide of SEQ ID NO:1, expressed as a GAL4 activation domain fusion (prey clone from the pACT2 NIH3T3 cDNA library) (peptide)
# chain: ANFNQSGNIADSSLSFTFTNSSNGPNLITTQTNSQALSQPIASSNVHDNFMNNEITASKIDDGNNSKPLSPGWTDQTAYNAFGITTGMFNTTTMDDVYNYLFDDEDTPPNPKKEAPWNCCPVSCCGNCCFFRALQSCPQG
# notes: range 768-881; Yeast two-hybrid prey; also called peptide of the invention
# Molecular target: T1, mouse TSP-1-TSR, expressed as a GAL4 DNA binding domain fusion (pAS2-1TSP1 type 1 construct) (mouse, UniProt P04386 1-147; P35441 377-549)
# T1 construct: range 1-147;domain: TSR; also called TSR domain of TSP-1; bait
# T1 sequence (P04386 other isoform, or with tags, fused parts or gaps limits assumed): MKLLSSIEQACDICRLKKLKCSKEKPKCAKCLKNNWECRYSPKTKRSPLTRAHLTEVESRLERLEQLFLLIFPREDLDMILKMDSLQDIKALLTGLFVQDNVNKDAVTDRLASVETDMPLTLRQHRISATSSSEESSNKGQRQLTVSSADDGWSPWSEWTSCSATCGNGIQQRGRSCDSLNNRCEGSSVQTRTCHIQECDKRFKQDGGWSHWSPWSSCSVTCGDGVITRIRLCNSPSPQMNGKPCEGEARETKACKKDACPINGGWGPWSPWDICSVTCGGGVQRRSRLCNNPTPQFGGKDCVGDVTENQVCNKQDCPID
# Assay: yeast two-hybrid counter-screen (HIS3 / lacZ reporters)
binder,measurement,value
B1,binding result,no binding
